# Test results: PMC3528738
# Target: MPERp (HIV-1 (HXBc2 isolate))
# Assay: cross-linking; peptides (10 µg) in solution incubated with 20 µM BS3 for 1 h at 37°C, TCA precipitation, Tricine SDS-PAGE; detection by Western blot with MAb2F5 or by NBD fluorescence in the gel
# Sequence of MPERp (peptide) (P03375 656-683): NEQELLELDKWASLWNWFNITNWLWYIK
substance,measurement,value
MPERp (peptide),stoichiometry N,2
